Measurements published in article PMC5906663.

Tests used:
[1] = target: human NCAM Ig1-5/FN1-2 Fc fusion protein (full-length NCAM-EC) (human) (UniProt P13591); assay: pull-down; 1 ug of neurocan (human or mouse) incubated with 1 ug of Fc protein in TBS for 1 hr at 37 C; Fc proteins pulled down with Protein A/G Sepharose beads; immunoblot, densitometry
[2] = target: human NCAM Ig1 Fc fusion protein (human); assay: as above
[3] = target: human NCAM Ig1-2 Fc fusion protein (human); assay: as above
[4] = target: human NCAM Ig1-3 Fc fusion protein (human); assay: as above
[5] = target: human NCAM Ig2 Fc fusion protein (human); assay: as above
[6] = target: NCAM K162D mutant expressed in HEK293T cells (UniProt P13591); assay: co-IP; lysates (1 mg, RIPA buffer) of HEK293T cells transfected with NCAM140, NCAM mutants or EphA3, incubated with recombinant neurocan; precipitated with antibodies against NCAM (H-300) or EphA3 (C-19) and Protein A/G agarose; immunoblot for neurocan, densitometry
[7] = target: NCAM R156E mutant expressed in HEK293T cells (UniProt P13591); assay: as above

neurocan bound to NCAM-EC-Fc, percent of the human neurocan level [1] [%]	neurocan bound, percent of the amount bound to NCAM-EC-Fc [2] [%]	neurocan bound, percent of the amount bound to NCAM-EC-Fc [3] [%]	neurocan bound, percent of the amount bound to NCAM-EC-Fc [4] [%]	neurocan bound, percent of the amount bound to NCAM-EC-Fc [5] [%]	neurocan co-immunoprecipitated, percent of WT NCAM [6]	neurocan co-immunoprecipitated, percent of WT NCAM [7]	Substance
93							recombinant mouse neurocan Glu23-637 (a truncation lacking the sushi domain) (from UniProt P55066 23-637) (domain or fragment)
	23	33	50	129	41 % of WT	32 % of WT	recombinant human neurocan (full-length protein) (from UniProt O14594 23-1321) (natural protein)
